{"source": "paper PMC5961147", "about": "(Nucleic Acids Research, 2018)", "target": "the molecule itself", "experiment": "cross-linking"}
{"protein": "Flag-SART3 (natural protein, UniProt Q15020 1-963, looked up) MATAAETSASEPEAESKAGPKADGEEDEVKAARTRRKVLSRAVAAATYKTMGPAWDQQEEGVSESDGDEYAMASSAESSPGEYEWEYDEEEEKNQLEIERLEEQLSINVYDYNCHVDLIRLLRLEGELTKVRMARQKMSEIFPLTEELWLEWLHDEISMAQDGLDREHVYDLFEKAVKDYICPNIWLEYGQYSVGGIGQKGGLEKVRSVFERALSSVGLHMTKGLALWEAYREFESAIVEAARLEKVHSLFRRQLAIPLYDMEATFAEYEEWSEDPIPESVIQNYNKALQQLEKYKPYEEALLQAEAPRLAEYQAYIDFEMKIGDPARIQLIFERALVENCLVPDLWIRYSQYLDRQLKVKDLVLSVHNRAIRNCPWTVALWSRYLLAMERHGVDHQVISVTFEKALNAGFIQATDYVEIWQAYLDYLRRRVDFKQDSSKELEELRAAFTRALEYLKQEVEERFNESGDPSCVIMQNWARIEARLCNNMQKARELWDSIMTRGNAKYANMWLEYYNLERAHGDTQHCRKALHRAVQCTSDYPEHVCEVLLTMERTEGSLEDWDIAVQKTETRLARVNEQRMKAAEKEAALVQQEEEKAEQRKRARAEKKALKKKKKIRGPEKRGADEDDEKEWGDDEEEQPSKRRRVENSIPAAGETQNVEVAAGPAGKCAAVDVEPPSKQKEKAASLKRDMPKVLHDSSKDSITVFVSNLPYSMQEPDTKLRPLFEACGEVVQIRPIFSNRGDFRGYCYVEFKEEKSALQALEMDRKSVEGRPMFVSPCVDKSKNPDFKVFRYSTSLEKHKLFISGLPFSCTKEELEEICKAHGTVKDLRLVTNRAGKPKGLAYVEYENESQASQAVMKMDGMTIKENIIKVAISNPPQRKVPEKPETRKAPGGPMLLPQTYGARGKGRTQLSLLPRALQRPSAAAPQAENGPAAAPAVAAPAATEAPKMSNADFAKLFLRK", "values": [{"measurement": "stoichiometry N", "value": 2}]}
